We go through 14 sequences from a protein production outcome set (Wang et al. 2014).

The series in a line: label from the status in PepcDB records.

For the sequence “MAHNYLLEIGLEEIPAHVVTPSIKQLVQKVTAFLKENRLTYDSIDHFSTPRRLAIRINGLGDQQPDIEEDAKGPARKIAQDADGNWTKAAIGFTRGQGLTVDDITFKTIKGTDYVYVHKLIKGKMTKEILTGLKEVVESINFPTMMKWANFDFKYVRPIRWLVSILDEEVLPFSILDVTAGRRTEGHRFLGEAVELANAEEYEAKLHDQFVIVDADERKQLISNQIKAIAESNRWNVTPNPGLLEEVNNLVEWPTAFNGGFDEKYLAIPEEVLITSMRDHQRFFFVRDQAGKLLPNFISVRNGNEEFIENVVRGNEKVLTARLEDAAFFYEEDQKHDINYYVDRLKKVSFHDKIGSMYEKLQRVNSIAKVIGNTLNLNQTELDDIDRATMIYKFDLVTGMVGEFSELQGVMGEKYAQLNGENQAVAQAIREHYMPNSAEGDLPESVTGAVVALADKFDNIFSFFSAGMIPSGSNDPYALRRHAYGIVRILNSRDWQLDLNQFKSQVKTELAENGTAFGVDVDQNFDQVLNFFNDRIKQLLDHQKISHDIVETVLTGNNHDVTEIIEAAQVLADAKASSTFKDDIEALTRVQRIATKNEESGELNVDPQLFNNASEGELFDQIIKIEAANNLTMSQLFAKLCELTPAISKYFDATMVMDKDENIKRNRLNMMSRLANLILKIGDLTNVLVK”, the protein production entry was “failed”.

Consider “MAIAHTYRRYLDYLRQDRGLAKNSLLVYGPFIRDFLDSHSAGDGSLLPDAFDAVTIRNHLLARSKGRSAEYTRLMAVALRSFCHFLFLRGDTARDLAGSVLEHHHHHH”, for which the protein production result is recorded as “failed”.

Regarding “MAIARHRSFSRAAIELGVSASALSHALKGLETRLGVRLLNRTTKSVTPTAAGEELVQSVLQPFDTIEGALESLNRYRNTPTGRIRINAAVEAANLLLAPVMPAFMDRYPDIEIDIVASNRMVDVTDAGFDAGIRYGGTVPEDMVARRLSADIRWVIAASPDYLERYGTPEHPDDLLHHRCISNRLGDDRVYRWELARDGETYQMTVPGSVTVNHAETGLVAVLGGAGLMYFPEPLVAPYVKDGRLRLVLTEWSPLEEGFHIYYSSRRQLPTGLRLLIEFIQEARPLGL”, the protein production result is given as “failed”.

Regarding “MAICESGALPSHVGALSYSGGAASSFFGRRNADGLNDKWLALRDAFRAAGGDLLAIEDARSAALDFVIHVNAHRLRHDVPAFVILAESEFIHPPNVDWRMLQQYKGIFTWMPDLVRRGIGTEICLAHPLGAGVVDGYQERPQLLVMIASNKALPVWRPAVDLYRERVRAIRWFEKHAPQAFALYGHDWDKSPRLPTPLGGIVHGVEFVLPWRLQWFPSWKGVIPSKREVLRHARFSLCYENVRGLRGYITEKIFDAFCAGNVPVYWGAEDITDYIPADCFIDRRAFGDYADLYRYLTSMPETRYIQYQQAICDFLVSPAAKRFSSEIFATTIVGKVLDTLGRRDELEHHHHHH”, the protein production result was “failed”.

As to “MAIDPNSIGAVTEPMLFEWTDRDTLLYAIGVGAGTGDLAFTTENSHGIDQQVLPTYAVICCPAFGAAAKVGTFNPAALLHGSQGIRLHAPLPAAGKLSVVTEVADIQDKGEGKNAIVVLRGRGCDPESGSLVAETLTTLVLRGQGGFGGARGERPAAPEFPDRHPDARIDMPTREDQALIYRLSGDRNPLHSDPWFATQLAGFPKPILHGLCTYGVAGRALVAELGGGVAANITSIAARFTKPVFPGETLSTVIWRTEPGRAVFRTEVAGSDGAEARVVLDDGAVEYVAG”, the protein production entry is “not failed”.

For the sequence “MAIDSKPHDDLQLFKTNLHPCGYWPDRWASDLVMDPNDPRLGAIYPQTLAWGFRRSGNLLYRPHCEHCNACVPVRVNVNAFVPNRSQRRCLARNATLVTRIVPAERNAEQLSLYRRYLHQRHPDGGMDGHGAIEFDQFLIGPWGYGRFMEIREPATNGTPGQLLAVAVTDLTHQALSAVYTFYEPNAAARGLGTLAILHQIHWAQREQRPYLYLGYWIKDHFKMDYKRRFQKLEIYDGYRWRPFSTTYPTTHTLLEHHHHHH”, the protein production result is reported as “not failed”.

Regarding “MAIDTNSSTPLVSVITPTYNRPNYLQAALTSAVRQTYSHIEIIVCDNCSPQNPQAIVDSFDDSRIRFFRNSSNMGMFANTIKAFKMARGKYVACLLDDDLWEEDFLEKLVPPLEANPNLALAFCDHYIMDANGNIDDALTEEYSRSYKRVDLPEGIYQPFYRMGLVDRSVSTATAAVMRRDAIAWDAIPAEVGGSWDIYLNYLCCRSGLGAYFYPEKLTRYRVHEQTETMLSGKRDAQAKIRKAQADMFCYEQFMADERLQELKPYFQQQWAHVSTTLGIGFMRSKQMKLARSYFWRSLKQSLKLRTMAGLMLSFTPPTIASRF”, the protein production result is recorded as “failed”.

“MAIETAILEKIKQYQTIIIHRHQRPDPDCIGSQLALRAILRASFPEKTVVAVGKHYPGFDWMGQADQEVSDDTYHQALVIVVDTANQPRVDDERWQTGAAVIKIDHHPNDDAFGDLQWVLPQASSTSEIIYDWFEANHADLTMPDDAARLLYAGIVGDTGRFMYPATSANTFAVAGKLLAYDFSMTAVNQAEDEISPEMARLSAYAYQNLEILPSGAAYLKLTDEIVESFGLAASDSTSAIVPLPGKITSVVAWAIFVESKDKTFRVRLRSKGPSINELAKRHGGGGHALASGAAAKDQAEIDQVIHELDQLVADTKGENELEHHHHHH”: the protein production entry is “not failed”.

With “MAIGERIHFFRLLRGMTQKYLGTAVGFPERSADVRLAQYETGSRKPKADLTAALAQVLDVSPQALDVPDIDSQIGLMHTLFTLEDVYGLTISEADGEVCLKVNKDKGKKAYELLQMLYVWKEQADKLSAGEISKDDYDRWRYYYPKYDTTQLWAKVPSQQLSDTLVEAFQDKLKKDELEHHHHHH”, the protein production result is on record as “failed”.

As for “MAIGSLSSLGLGSKVLNYDVIDKLKDADEKALIAPLDKKMEQNVEKQKALVEIKTLLSALKGPVKTLSDYSTYISRKSNVTGDALSASVGVGVPIQDIKVDVQNLAQGDI”, the protein production entry is reported as “failed”.

For “MAIKAGKVLRTATAAARKFQQKQFSASSSAFPEPPPVSPSSGVGAFLGIPKIIRSESDLLVSKYIRIAQGRLTKKGDYTEEKLKKMLSGEDRVGIGETMKLLEGRNTGLVSSKKPNSGRSKK”, the protein production entry was “failed”.

In the case of “MAIKGPRKHLKRLAAPANWQLPRKVKTFTVRPSPGPHSMDKSLPLLLVVRDVLKYADNAREAKKIIQTGKILIDGLKRKEYKHPAGLMDVLSIPEMDETYLVLFDESGRISLKKTDKTDVKLCKIVNKTVVKGGNIQLNLHDGRNQIVKVSDAAKAEEDVYKTGDSVLISIPEQSIAGHVAFGEGKLAYITGGKHVGEFAKIVEVENRALYSDIVTLENKDGEKFKTVKPYVFIVGQDEPVISMLEHHHHHH”, the protein production entry is given as “not failed”.

As to “MAIKNAFYAQSGGVTAVINASACGVIQTARKHPDQIGKVYAGRNGIIGALKEELIDTSLESDDAIQALIHTPGGAFGSCRYKLKNISENQREYERLIEVFRAHDIGYFFYNGGGDSQDTAYKVSQLADRMGYPITCIGVPKTVDNDLPFTDCCPGFGSVAKYIATSTLEASLDIKSMCETSTKVFILEVMGRHAGWIAAAGGLAGQSEGEPPHVILFPEIPFNREKFLERVDQCVRDYGYCVVVASEGAQYEDGRFVADAGAKDAFGHTQLGGVAPALANMVKQALGHKYHWAVADYLQRAARHIASATDVEQAYAVGKAAVEMALAGKQALMPTIVRDQAKPYRWSIGEANLSEVANQEKKMPIHYITDNGFGITQDCRDYLQPLIAGESFPPFDDGLPRVAKLKNQLVEKKLRTEFELLEHHHHHH”, the protein production entry is “failed”.

As for “MAINPNPRSVVAVRATVPEDAFTAGALGTLREGSGVVIRNDGLVLTIGYLITEAEEVWLTAYDGRVIPAHALAYDQESGFGLVQALAPTGLPAVALGDAGKARIGDAVVLADGIGRAVEAKIVTKQEFAGYWEYLLDEAIFIAPAHPSWGGAPLFGADGALLGIGSLRLQMSRAGEVADINMVVPIDLLPPILDDLLTRGQVAKPPRPWLGALSAESDGKVVVMSVTEGGPAAKAGLRQGDVISEVRDGAVDGLADFYRKLWDSGSAGAEIPMRVVRDGRETWLRVKSADRGSFLKKPQLQ”, the protein production entry is on record as “failed”.
